Measured values from paper PMC6321396.

How the values were obtained:
[1] = target: ApHt_20, IsCT-like antimicrobial venom peptide from Mesobuthus martensii Karsch (Mesobuthus martensii Karsch)
[2] = target: ApHt_20, IsCT-like antimicrobial venom peptide from Mesobuthus martensii Karsch (Mesobuthus martensii Karsch); remark: listed apart in the source

HAP-1, short-chain highly acidic peptide from Mesobuthus martensii Karsch
agar diffusion assay against Staphylococcus aureus AB94004: minimum concentration of HAP-1 required to completely inhibit the inhibition zone made by 40 nM ApHt 20 [1]: 140 nM
MIC of ApHt 20 against Staphylococcus aureus AB94004 in the presence of 32 μM HAP-1 (8 μM without HAP-1) [2]: 16 µM
